In PMC3324563 (Biochemistry, 2012):
Several values for one entry are separate records, joined by “and”; a condition that tells them apart may be missing. Equal values may be shown once.

B1: Methanocaldococcus jannaschii H2-forming N5,N10-methylene-H4MPT dehydrogenase (Hmd) (enzyme, Methanocaldococcus jannaschii JAL-1, UniProt Q58194 1-358, looked up)
chain: MKIAILGAGCYRTHAAAGITNFMRACEVAKEVGKPEIALTHSSITYGAELLHLVPDVKEVIVSDPCFAEEPGLVVIDEFDPKEVMEAHLSGNPESIMPKIREVVKAKAKELPKPPKACIHLVHPEDVGLKVTSDDREAVEGADIVITWLPKGNKQPDIIKKFADAIPEGAIVTHACTIPTTKFAKIFKDLGREDLNITSYHPGCVPEMKGQVYIAEGYASEEAVNKLYEIGKIARGKAFKMPANLIGPVCDMCSAVTATVYAGLLAYRDAVTKILGAPADFAQMMADEALTQIHNLMKEKGIANMEEALDPAALLGTADSMCFGPLAEILPTALKVLEKHKVVEEEGKTKCEIMSQKE
B2: Methanocaldococcus jannaschii prolyl-tRNA synthetase (ProRS) (enzyme, UniProt Q58635 1-455, looked up)
chain: MEFSEWYSDILEKAEIYDVRYPIKGCGVYLPYGFKIRRYTFEIIRNLLDESGHDEALFPMLIPEDLLAKEAEHIKGFEDEVYWVTHGGKTQLDVKLALRPTSETPIYYMMKLWVKVHTDLPIKIYQIVNTFRYETKHTRPLIRLREIMTFKEAHTAHSTKEEAENQVKEAISIYKKFFDTLGIPYLISKRPEWDKFPGAEYTMAFDTIFPDGRTMQIATVHNLGQNFSKTFEIIFETPTGDKDYAYQTCYGISDRVIASIIAIHGDEKGLILPPIVAPIQVVIVPLIFKGKEDIVMEKAKEIYEKLKGKFRVHIDDRDIRPGRKFNDWEIKGVPLRIEVGPKDIENKKITLFRRDTMEKFQVDETQLMEVVEKTLNNIMENIKNRAWEKFENFITILEDINPDEIKNILSEKRGVILVPFKEEIYNEELEEKVEATILGETEYKGNKYIAIAKTY
B3: Alexafluor-labeled Methanocaldococcus jannaschii HmdII (natural protein, Methanocaldococcus jannaschii JAL-1, UniProt Q58734 1-353, looked up)
chain: MRNIRKIKVDNMKVSVYGAGNQNLYINKLNLPEKFGGEPPYGGSRMAIEFAEAGHDVVLAEPNKNIMSDDLWKKVEDAGVKVVSDDVEAAKHGEIHVLFTPFGKATFRIAKTIIEHVPENAVICNTCTVSPVVLYYSLEPILRTKRKDVGISSMHPAAVPGTPQHGHYVIGGKTTDGKELATEEQIKKAVELAKSAGKEAYVVPADVSSVVADMGSLVTAVALSGVLDYYTVGRKIINAPKKMIEQQVIMTLQTMASLVETSGIEGMVKALNPELLIRSASSMKLLDRQKDLDAALEILQNLDETLKAEVEKAEIKPTTLVAAQSLVKEIKTLIGGAAAEGAIKRSARKLFEH
modifications: Alexafluor label (AlexaFluor 488), site not stated

Assays:
[1] = target: Methanocaldococcus jannaschii HmdIII (Methanocaldococcus jannaschii JAL-1); assay: SEC-MALS
[2] = target: Alexa Fluor 488-labeled Methanocaldococcus jannaschii ProRS (Methanocaldococcus jannaschii) (UniProt Q58635); assay: fluorescence polarisation
[3] = target: the molecule itself; assay: SEC-MALS
[4] = target: B2; assay: fluorescence polarisation

Methanocaldococcus jannaschii HmdIII (natural protein)
stoichiometry N [1]: 2 and 4
Kd [2]: 1890 nM

B1
stoichiometry N [3]: 2

B2
stoichiometry N [3]: 2

B3
binding result [4]: binds
